Target: the molecule itself
Assay: SEC-SAXS; purified complexes loaded at 2.55 (CBKP1P2), 0.72 (CBKP1) and 3 mg/ml (CBKP2) on a Bio-SEC3 column; 20 mM Tris pH 8.5, 300 mM NaCl, 5 mM 2-mercaptoethanol, 5% glycerol

B1: CBKP1, four-subunit PaKEOPS complex (PaCgi121/PaBud32/PaKae1/PaPcc1) (complex)
chain 1: MTPKFKNFKHDNSGQVETYLFEVISKYTMLEIKTKFGKLCIAKVKLASESIERALNLCNDNCQIVSAKCHEEVIFATILAIKAFSSGRNTAKTIKGEILLRLAGVKQIKDAIKIIGARKGENLIIYFGVSDPCSSLKDFISSLGLREEPLKPCDEDEVKRGFERAAIIEAL
chain 2: MKLIKQGAEAKIYLAEFSELYFDYPIKVIVKERIKKRYRIPEIDLKLRKERTIREARILRRAKEFGVNVPYVFEVDTKNMIIVMEYIEGERLKELLEKLPMEERLKVCREVGRQIGKLHEAGIVHGDLTTSNMILREGKVYFIDFGLAEFDDTIEAQGVDLHLLKRAMESTHYKWFERGFEEVLKGYIEIRGEDKGREIREKIREIELRGRYRERSWITQ
chain 3: MLALGIEGTAHTLGIGIVSEDKVLANVFDTLTTEKGGIHPKEAAEHHARLMKPLLRKALSEAGVSLDDIDVIAFSQGPGLGPALRVVATAARALAVKYRKPIVGVNHCIAHVEITKMFGVKDPVGLYVSGGNTQVLALEGGRYRVFGETLDIGIGNAIDVFARELGLGFPGGPKVEKLAEKGEKYIELPYAVKGMDLSFSGLLTEAIRKYRSGKYRVEDLAYSFQETAFAALVEVTERAVAHTEKDEVVLVGGVAANNRLREMLRIMTEDRGIKFFVPPYDLCRDNGAMIAYTGLRMYKAGISFRLEETIVKQKFRTDEVEIVW
chain 4: MKPKRVQGKIVIEFPSEDIAEVVYTSVLYEHVSVPYRRSRVNFRREGRRIVLEIEANDSSAMRGTVNSYLRWIKVALDVLNI
stoichiometry N: 2

— paper PMC9889334 (Nature Communications, 2022)
